Test results from US20190359693A1.

Experiments:
[1] = target: recombinant HA of H7N9 A/Hangzhou/1/2013 (influenza A virus); assay: biolayer interferometry (Octet), steady-state fit, geometric mean, pH 7.4
[2] = target: recombinant HA of H1N1 A/Brisbane/59/07 (influenza A virus); assay: as above
[3] = target: recombinant HA of H3N2 A/HK/1/68-MA (influenza A virus); assay: as above
[4] = target: recombinant HA of H3N2 A/Wisconsin/67/05 (influenza A virus); assay: as above
[5] = target: recombinant HA of H7N3 A/NIBRG/60 (A/mallard/NL/12/00) (influenza A virus); assay: as above
[6] = target: recombinant HA of B/Brisbane/60/08 (Victoria) (influenza B virus); assay: as above
[7] = target: hemagglutinin (HA) of influenza virus H11N9 A/Northern Pintail/MPC2085/07 (influenza A virus); assay: cell-based or functional assay
[8] = target: hemagglutinin (HA) of influenza virus H3N2 A/Wisconsin/67/05 (influenza A virus); assay: cell-based or functional assay
[9] = target: hemagglutinin (HA) of influenza virus H8N2 A/Env/MPJ1258/09 (influenza A virus); assay: cell-based or functional assay
[10] = target: hemagglutinin (HA) of influenza virus B/Malaysia/2506/04 (Victoria) (influenza B virus); assay: cell-based or functional assay
[11] = target: hemagglutinin (HA) of influenza virus H6N8 A/Eurasian Wigeon/MPD411/07 (influenza A virus); assay: cell-based or functional assay
[12] = target: hemagglutinin (HA) of influenza virus H9N2 A/HK/466419/09 (influenza A virus); assay: cell-based or functional assay
[13] = target: hemagglutinin (HA) of influenza B/Florida/04/06 (Yamagata) (influenza B virus); assay: cell-based or functional assay
[14] = target: hemagglutinin (HA) of influenza virus H1N1 A/New Caledonia/20/99 (influenza A virus); assay: cell-based or functional assay
[15] = target: hemagglutinin (HA) of influenza virus H14N5 A/Mallard/Astrakhan/263/1982 (influenza A virus); assay: cell-based or functional assay
[16] = target: hemagglutinin (HA) of influenza virus H3N2 A/Aichi/2/68 (influenza A virus) (UniProt P03437); assay: cell-based or functional assay
[17] = target: hemagglutinin (HA) of influenza virus H2N2 A/Env/HK/MPU3156/05 (influenza A virus); assay: cell-based or functional assay
[18] = target: hemagglutinin (HA) of influenza virus H7N7 A/PR8 H7N7-NY (influenza A virus); assay: cell-based or functional assay
[19] = target: hemagglutinin (HA) of influenza virus H3N2 A/Panama/2007/99 (influenza A virus); assay: cell-based or functional assay
[20] = target: hemagglutinin (HA) of influenza virus H10N7 A/Chick/Germany/N/49 (influenza A virus); assay: cell-based or functional assay
[21] = target: hemagglutinin (HA) of influenza virus H1N1 A/HK/54/98 (influenza A virus); assay: cell-based or functional assay
[22] = target: hemagglutinin (HA) of influenza virus H5N1 A/Indonesia/5/05 (influenza A virus); assay: cell-based or functional assay
[23] = target: hemagglutinin (HA) of influenza virus H12N5 A/Env/MPK659/09 (influenza A virus); assay: cell-based or functional assay
[24] = target: hemagglutinin (HA) of influenza virus H6N1 A/Eurasian Wigeon/MPG1884/09 (influenza A virus); assay: cell-based or functional assay
[25] = target: hemagglutinin (HA) of influenza virus H7N3 A/NIBRG/60 (A/mallard/Netherlands/12/00) (influenza A virus); assay: cell-based or functional assay
[26] = target: hemagglutinin (HA) of influenza virus H1N1 A/Puerto Rico/8/34-MA (influenza A virus); assay: cell-based or functional assay
[27] = target: hemagglutinin (HA) of influenza virus H1N1 A/WSN/33 (influenza A virus) (UniProt P03454); assay: cell-based or functional assay
[28] = target: hemagglutinin (HA) of influenza virus H4 A/WF/HK/MPA892/06 (influenza A virus); assay: cell-based or functional assay
[29] = target: hemagglutinin (HA) of influenza virus H5N1 A/PR8 H5N1 HK97 (influenza A virus); assay: cell-based or functional assay
[30] = target: hemagglutinin (HA) of influenza virus H7N7 A/Northern Shoveler/MPF518/08 (influenza A virus); assay: cell-based or functional assay
[31] = target: hemagglutinin (HA) of influenza B/Brisbane/60/08 (Victoria) (influenza B virus); assay: cell-based or functional assay
[32] = target: hemagglutinin (HA) of influenza virus B/Harbin/7/94 (Yamagata) (influenza B virus); assay: cell-based or functional assay
[33] = target: hemagglutinin (HA) of influenza virus H5N1 A/Vietnam/1194/04 (influenza A virus); assay: cell-based or functional assay
[34] = target: hemagglutinin (HA) of influenza virus H10N8 A/Jiangxi/346/2013 (influenza A virus); assay: cell-based or functional assay
[35] = target: hemagglutinin (HA) of influenza virus H3N2 A/Perth/16/09 (influenza A virus); assay: cell-based or functional assay
[36] = target: hemagglutinin (HA) of influenza virus H8N4 A/Eurasian Wigeon/MPH571/08 (influenza A virus); assay: cell-based or functional assay
[37] = target: hemagglutinin (HA) of influenza virus H1N2 A/Env/HK/MPU3156/05 (influenza A virus); assay: cell-based or functional assay
[38] = target: hemagglutinin (HA) of influenza virus H4N6 A/Great Cormorant/MPB1683/06 (influenza A virus); assay: cell-based or functional assay
[39] = target: hemagglutinin (HA) of influenza virus H1N1 A/Mississippi/03/01 274H (influenza A virus); assay: cell-based or functional assay
[40] = target: hemagglutinin (HA) of influenza virus H3N2 A/Fukui/45/04 (influenza A virus); assay: cell-based or functional assay
[41] = target: hemagglutinin (HA) of influenza virus H7N9 A/Anhui/1/13 (influenza A virus); assay: cell-based or functional assay
[42] = target: hemagglutinin (HA) of influenza virus H3N2 A/HK/1174/99 (influenza A virus); assay: cell-based or functional assay

B1: MD2407 (bispecific antibody)
chain: EVQLVESGGGLVQPGGSLRLSCAVSISIFDIYAMDWYRQAPGKQRDLVATSFRDGSTNYADSVKGRFTISRDNAKNTLYLQMNSLKPEDTAVYLCHVSLYRDPLGVAGGMGVYWGKGALVTVSSGGGGSGGGGSEVQLVESGGGLVQAGGSLKLSCAASGRTYAMGWFRQAPGKEREFVAHINALGTRTYYSDSVKGRFTISRDNAKNTEYLEMNNLKPEDTAVYYCTAQGQWRAAPVAVAAEYEFWGQGTQVTVSSGGGGSGGGGSEVQLVESGGGLVQPGGSLRLSCAATGFTLENKAIGWFRQTPGSEREGVLCISKSGSWTYYTDSMRGRFTISRDNAENTVYLQMDSLKPEDTAVYYCATTTAGGGLCWDGTTFSRLASSWGQGTQVTVSSGGGGSGGGGSEVQLVESGGGLVQPGGSLKLSCAASGFTFSTSWMYWLRQAPGKGLEWVSVINTDGGTYYADSVKDRFTISRDNAKDTLYLQMSSLKSEDTAVYYCAKDWGGPEPTRGQGTQVTVSS
[1]
  Kd: 1.7 nM
[2]
  Kd: 2.8 nM
[3]
  Kd: 2.2 nM
[4]
  Kd: 0.5 nM
[5]
  Kd: 1.2 nM
[6]
  Kd: 3.1 nM
[7]
  average neutralization titer: 34.5 nM
[8]
  average neutralization titer: 19.1 nM
[9]
  average neutralization titer: 8.8 nM
[10]
  average neutralization titer: 9.2 nM
[11]
  average neutralization titer: 20.9 nM
[12]
  average neutralization titer: 53.9 nM
[13]
  ADCC induction (EC50 grade, FcγRIIIa reporter bioassay): > 0.5 µg/mL
[14]
  average neutralization titer: 5.7 nM
[15]
  average neutralization titer: 19.2 nM
[16]
  average neutralization titer: 9.9 nM
[17]
  average neutralization titer: 19.2 nM
[18]
  average neutralization titer: 22.3 nM
[19]
  average neutralization titer: 14.9 nM
[20]
  average neutralization titer: 13.2 nM
[21]
  average neutralization titer: 10.3 nM
[22]
  average neutralization titer: 16.2 nM
[23]
  average neutralization titer: > 1000 nM
[24]
  average neutralization titer: 20.6 nM
[25]
  average neutralization titer: 13.8 nM
[26]
  average neutralization titer: 7.3 nM
[27]
  average neutralization titer: 4.8 nM
[28]
  average neutralization titer: 6.8 nM
[29]
  average neutralization titer: 3.6 nM
[30]
  average neutralization titer: 36.1 nM
[31]
  ADCC induction (EC50 grade, FcγRIIIa reporter bioassay): > 0.5 µg/mL
[32]
  average neutralization titer: 6.4 nM
[33]
  average neutralization titer: 9.2 nM
[34]
  average neutralization titer: 30.4 nM
[35]
  average neutralization titer: 8.1 nM
[36]
  average neutralization titer: 15.1 nM
[37]
  average neutralization titer: 25.6 nM
[38]
  average neutralization titer: 4.8 nM
[39]
  average neutralization titer: 4.8 nM
[40]
  average neutralization titer: 19.2 nM
[41]
  average neutralization titer: 64.6 nM
[42]
  average neutralization titer: 76 nM
